Non-standard residues stand in square brackets, D forms with d. No end group written: not given here. pY = N[C@@H](Cc1ccc(OP(=O)(O)O)cc1)C(=O)O; Rhodamine = not defined here; rhodamine = not defined here
Legend:
Settings in all cases: both partners purified
[1] = molecular target: T1, PIK3R3 C-terminal SH2 domain (human); test: SPR; Biacore 3000; 6X His SH2 proteins held on a Ni-NTA chip, dye-free peptides in solution, equilibrium
T1 construct: PIK3R3, human; source: bacterial expression, purified

[2] = molecular target: T2, PLCG1 C-terminal SH2 domain (human); test: fluorescence polarisation; saturation binding in solution: rhodamine peptide fixed at 10 nM, protein titrated 0.002-10 uM, 20 min at room temperature; assay buffer 20 mM HEPES, 100 mM KCl, 0.1% Tween-20, 5 mM DTT, pH 7.8; apparent KD
T2 construct: PLCG1, human; source: bacterial expression, purified
T2 sequence (P19174 whole entry, looked up): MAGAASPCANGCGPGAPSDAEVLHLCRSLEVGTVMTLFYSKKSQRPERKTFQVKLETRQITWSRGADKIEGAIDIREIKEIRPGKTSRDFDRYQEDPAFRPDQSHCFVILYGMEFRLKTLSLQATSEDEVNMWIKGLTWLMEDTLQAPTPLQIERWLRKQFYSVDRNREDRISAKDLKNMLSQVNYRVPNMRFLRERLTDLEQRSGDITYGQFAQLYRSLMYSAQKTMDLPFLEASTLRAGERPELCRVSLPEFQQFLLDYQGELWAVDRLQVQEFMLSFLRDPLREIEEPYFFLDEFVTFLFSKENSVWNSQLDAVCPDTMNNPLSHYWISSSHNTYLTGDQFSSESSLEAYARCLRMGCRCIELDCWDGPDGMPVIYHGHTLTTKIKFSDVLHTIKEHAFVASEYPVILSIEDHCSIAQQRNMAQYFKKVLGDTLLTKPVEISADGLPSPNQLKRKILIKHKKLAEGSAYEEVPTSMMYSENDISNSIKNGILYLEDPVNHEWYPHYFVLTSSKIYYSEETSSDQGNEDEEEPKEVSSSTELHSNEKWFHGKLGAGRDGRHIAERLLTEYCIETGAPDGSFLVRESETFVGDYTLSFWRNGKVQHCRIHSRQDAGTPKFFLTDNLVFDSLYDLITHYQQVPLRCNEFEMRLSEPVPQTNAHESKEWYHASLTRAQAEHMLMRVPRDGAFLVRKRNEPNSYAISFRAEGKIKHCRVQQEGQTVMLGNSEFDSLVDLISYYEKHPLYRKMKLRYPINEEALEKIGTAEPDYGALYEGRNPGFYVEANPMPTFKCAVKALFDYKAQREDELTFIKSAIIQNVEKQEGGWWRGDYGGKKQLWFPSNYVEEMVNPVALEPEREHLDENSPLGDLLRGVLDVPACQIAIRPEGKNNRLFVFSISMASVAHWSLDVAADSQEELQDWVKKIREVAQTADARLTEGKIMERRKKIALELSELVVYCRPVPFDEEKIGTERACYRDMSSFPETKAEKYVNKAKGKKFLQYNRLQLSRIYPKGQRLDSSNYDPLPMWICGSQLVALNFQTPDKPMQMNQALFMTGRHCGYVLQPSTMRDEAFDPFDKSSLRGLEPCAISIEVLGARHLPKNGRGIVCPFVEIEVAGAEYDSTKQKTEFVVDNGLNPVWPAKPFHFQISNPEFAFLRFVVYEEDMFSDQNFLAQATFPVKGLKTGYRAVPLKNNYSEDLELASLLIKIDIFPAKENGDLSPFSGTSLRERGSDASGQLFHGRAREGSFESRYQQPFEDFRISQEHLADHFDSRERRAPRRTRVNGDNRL

PTK6 SH2 domain [3] = molecular target: T3, PTK6 SH2 domain (human, UniProt Q13882 78-170); test: as above
T3 construct: PTK6, human; source: bacterial expression, purified
T3 sequence (Q13882 78-170): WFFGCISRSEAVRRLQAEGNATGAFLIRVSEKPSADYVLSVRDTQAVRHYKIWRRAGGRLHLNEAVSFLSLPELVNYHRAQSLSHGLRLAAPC

GRB2 SH2 domain = molecular target: T4, GRB2 SH2 domain (human, UniProt P62993 60-152); test: fluorescence polarisation; competition: rhodamine peptide 10 nM, protein at four times its KD, unlabeled competitor peptide in 11 serial 1:3 dilutions; Ki from IC50, one-site model
T4 construct: GRB2, human; source: bacterial expression, purified

[4] = molecular target: T2, PLCG1 C-terminal SH2 domain; test: SPR; Biacore 3000; 6X His SH2 proteins held on a Ni-NTA chip, dye-free peptides in solution, equilibrium
[5] = molecular target: T5, PIK3R1 N-terminal SH2 domain (human); test: fluorescence polarisation; saturation binding in solution: rhodamine peptide fixed at 10 nM, protein titrated 0.002-10 uM, 20 min at room temperature; assay buffer 20 mM HEPES, 100 mM KCl, 0.1% Tween-20, 5 mM DTT, pH 7.8; apparent KD
T5 construct: PIK3R1, human; source: bacterial expression, purified

[6] = molecular target: T1, PIK3R3 C-terminal SH2 domain; test: as above
[7] = molecular target: T5, PIK3R1 N-terminal SH2 domain; test: SPR; Biacore 3000; 6X His SH2 proteins held on a Ni-NTA chip, dye-free peptides in solution, equilibrium
GRB7 SH2 domain = molecular target: T6, GRB7 SH2 domain (human, UniProt Q14451 431-527); test: fluorescence polarisation; competition: rhodamine peptide 10 nM, protein at four times its KD, unlabeled competitor peptide in 11 serial 1:3 dilutions; Ki from IC50, one-site model
T6 construct: GRB7, human; source: bacterial expression, purified

PTK6 SH2 domain [8] = molecular target: T7, PTK6 SH2 domain (human, UniProt Q13882 78-170); test: fluorescence polarisation; saturation binding in solution; rhodamine-labeled peptide fixed at 10 nM, protein titrated 0.002-10 µM (twelve two-fold dilutions); 20 minutes at room temperature in the dark; assay buffer 20 mM HEPES, 100 mM KCl, 0.1% Tween-20, 5 mM DTT, pH 7.8; apparent KD; assay detection threshold of 20 µM
T7 construct: PTK6, human; SH2 domain; source: bacterial expression culture, purified
T7 sequence (Q13882 78-170): as above

PTK6 SH2 domain [9] = molecular target: T7, PTK6 SH2 domain; test: fluorescence polarisation; competition; fluorescent peptide 10 nM, protein at four times the calculated KD, unlabeled competitor peptide at 11 serial 1:3 dilutions; at least 20 minutes; IC50 from a four-parameter log-logistic fit, one-site competition model

T4 sequence (P62993 60-152): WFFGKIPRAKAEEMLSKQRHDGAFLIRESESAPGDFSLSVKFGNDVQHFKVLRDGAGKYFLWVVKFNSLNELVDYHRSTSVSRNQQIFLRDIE
T6 sequence (Q14451 431-527): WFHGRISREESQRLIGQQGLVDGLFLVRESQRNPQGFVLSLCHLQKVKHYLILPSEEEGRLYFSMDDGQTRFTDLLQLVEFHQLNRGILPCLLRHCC

## FGCV[pY]HGTLLDN [MET pY1093 phosphopeptide, dye-free]
[1]
  Kd: 3550 nM

## TNHI[pY]SNLANCS [KIT pY936 phosphopeptide, dye-free]
[1]
  Kd: 4 nM

## Rhodamine-NNYV[pY]IDPTQLPD (reading uncertain) [KIT pY570 phosphopeptide, rhodamine-labelled]
[2]
  Kd: 3830 nM

B1: ErbB3pY1289 phosphopeptide, rhodamine-labelled (peptide)
peptide: rhodamine-SEQG[pY]EEMRAFQD
modifications: reading uncertain
notes: human ErbB3 around Tyr1289; also called labeled peptide 7; source: synthetic peptide
PTK6 SH2 domain [3]
  Kd: 2110 nM

B2: ErbB4pY1208 phosphopeptide, unlabeled competitor (peptide)
peptide: NEPL[pY]LNTFANTD
notes: human ErbB4 around Tyr1208; source: synthetic peptide
GRB2 SH2 domain
  Ki: 6850 nM

## NNYV[pY]IDPTQLPD [KIT pY570 phosphopeptide, dye-free]
[4]
  Kd: 1360 nM

B3: ErbB2pY1139 phosphopeptide, unlabeled competitor (peptide)
peptide: PQPE[pY]VNQPDVRD
notes: human ErbB2 around Tyr1139; source: synthetic peptide
GRB2 SH2 domain
  Ki: 1710 nM

## Rhodamine-DPQD[pY]LLLINCQD (reading uncertain) [Gab1 pY183 phosphopeptide, rhodamine-labelled]
[5]
  Kd: 4260 nM
[6]
  Kd: 3790 nM
[2]
  Kd: 2040 nM

## rhodamine-FGCV[pY]HGTLLDND (reading uncertain) [MET pY1093 phosphopeptide, rhodamine-labelled]
[6]
  Kd: 2560 nM

## QEAN[pY]VPMTPGTD [Gab1 pY472 phosphopeptide, dye-free]
[7]
  Kd: 251 nM
[1]
  Kd: 18 nM

## Rhodamine-QEAN[pY]VPMTPGTD (reading uncertain) [Gab1 pY472 phosphopeptide, rhodamine-labelled]
[5]
  Kd: 2330 nM
[6]
  Kd: 255 nM

B4: ErbB3pY1197 phosphopeptide, unlabeled competitor (peptide)
peptide: EDEE[pY]EYMNRRRD
notes: human ErbB3 around Tyr1197; source: synthetic peptide
GRB7 SH2 domain
  Ki: 113 nM

B5: ErbB3pY1260 phosphopeptide, unlabeled competitor (peptide)
peptide: PDED[pY]EYMNRQRD
notes: human ErbB3 around Tyr1260; source: synthetic peptide
GRB7 SH2 domain
  Ki: 131 nM

## DPQD[pY]LLLINCQD [Gab1 pY183 phosphopeptide, dye-free]
[7]
  Kd: 722 nM
[1]
  Kd: 137 nM
[4]
  Kd: 146 nM

## Rhodamine-FGTV[pY]KGIWIPD (reading uncertain) [ErbB2-pY735 phosphopeptide, rhodamine-labelled]
PTK6 SH2 domain [8]
  Kd: ≥ 20000 nM

## FGTV[pY]KGIWIPD [ErbB2-pY735 phosphopeptide, unlabeled competitor]
PTK6 SH2 domain [9]
  IC50: 148000 nM

From publication PMC3433420, “Comprehensive Binary Interaction Mapping of SH2 Domains via Fluorescence Polarization Reveals Novel Functional Diversification of ErbB Receptors” (PLoS ONE, 2012)
